Article PMC6411343 (International Journal of Oncology, 2019)

B1: [^125I]I-G3-H6 (DARPin G3-H6, directly radioiodinated with iodine-125) (designed binder)
chain: MDLGKKLLEAARAGQDDEVRILMANGADVNAKDEYGLTPLYLATAHGHLEIVEVLLKNGADVNAVDAIGFTPLHLAAFIGHLEIAEVLLKHGADVNAQDKFGKTAFDISIGNGNEDLAEILQKLNGS
modifications: iodine-125 on tyrosines (direct chloramine-T radioiodination, random attachment; number and position not controlled)
B2: [^125I]I-HPEM-G3-GGGC (DARPin G3-GGGC, site-specifically labelled with [^125I]I-iodo-[(4-hydroxyphenyl)ethyl]maleimide) (designed binder)
chain: DLGKKLLEAARAGQDDEVRILMANGADVNAKDEYGLTPLYLATAHGHLEIVEVLLKNGADVNAVDAIGFTPLHLAAFIGHLEIAEVLLKHGADVNAQDKFGKTAFDISIGNGNEDLAEILQKLNGGGGC
modifications: [^125I]I-HPEM ([^125I]iodo-[(4-hydroxyphenyl)ethyl]maleimide) on the C-terminal cysteine (maleimide-cysteine coupling)
B3: [^125I]I-G3-GGGC-IAA (DARPin G3-GGGC, directly radioiodinated, terminal cysteine capped with iodoacetamide) (designed binder)
chain: B2 chain
modifications: iodine-125 by direct iodination; terminal cysteine capped by alkylation with iodoacetamide (IAA)

Target: human epidermal growth factor receptor 2 (HER2) (human (endogenous in SKOV3, BT474, …, UniProt P04626 23-1255))
Experiment: radioligand binding

Row | Binder | KD1 (high affinity interaction, 1:2 interaction model) [pM] | KD2 (low affinity interaction, 1:2 interaction model) [nM]
1 | B1 | 163 | 3.9
2 | B2 | 99 | 3.5
3 | B3 | 146 | 1.5
